Source: patent US20220170056A1, “COMPOSITIONS AND METHODS FOR BIOSYNTHESIS OF […] CANNABINOIDS IN A HE[…]” (INMED PHARMACEUTICALS INC., priority 2019, published 2022)

Key:
MEP pathway flux = experiment: Lycopene production (MEP pathway flux) in recombinant E. coli; type: cell-based, E. coli BL21(DE3); conditions: for terpene titer (lycopene and isoprene), in words: IspDF2 and IspDF3 versions of the Dxs-IspDF-Idi chassis, FIG. 18
Method: Both isoprene and lycopene starter cultures were cultivated overnight at 30° C. in LB media (Sigma-Aldrich) containing appropriate antibiotic/s. Isoprene starter cultures were then diluted to 15 mL with the medium to OD600 of 0.2, induced with arabinose and/or IPTG; and allowed to grow for 24 h at 30° C. in 25 mL sealed glass tube. Lycopene starter cultures were diluted to 5 mL with the medium to OD600 of 0.2, induced with IPTG, and allowed to grow for 24 h at 30° C. in culture tubes in the dark.
Lycopene is an intracellular product. 2 mL of cell culture was centrifuged at 8000 rpm for 5 min and lycopene was extracted by extraction from the pellet with 1 mL acetone. Extraction was performed at 55° C. with intermittent vortexing for 20 min in reduced light condition. The acetone suspension was centrifuged and filtered before analysis. Samples were analyzed on the PerkinElmer Flexar system equipped with Zorbax C-18 column (4.6×250 mm, Agilent Technologies) maintained at 30° C. Samples were run with mobile phase consisting of 66% (v/v) methanol, 30% (v/v) tetrahydrofuran and 4% (v/v) water at 1 mL/min flow rate. Lycopene detection was done by monitoring absorbance at 474 nm wavelength using a photodiode detector.

E. coli [1] = experiment: Olivetolate (OA) uptake into E. coli expressing heterologous transporter; type: cell-based; conditions: 24 to 48 hours after induction; compared to BL21 control without additional transporters (FIG. 8)
Method: (§1) The following experimental host cells were tested: (1) E. coli transformed with plasmids encoding arabinose inducible transporters pcaK or pp3656; and (2)) E. coli transformed with plasmids encoding arabinose inducible transporters pcaK or pp3656 and B5 plasmid (encoding ispDF1 enzyme, GPPS, and an optimized variant NphB (see, Valliere et al.).
(§2) Seed cultures of (1) were inoculated from glycerol stock into 5 mL LB with 34 μg/mL chloramphenicol, incubate at 30° C. overnight. Seed cultures of (2) were inoculated from glycerol stock into 5 mL LB with 34 μg/mL chloramphenicol and 50 μg/mL kanamycin, incubate at 30° C. overnight.
(§3) Induction cultures of (1) were inoculated from seed culture into total culture volume 5 mL TB media with 0.1 mM OA and cultured at 30° C. until OD600 of 0.8. Cultures were induced by adding arabinose and magnesium to a final concentration of 5 mM arabinose and 5 mM MgCl2. During induction, cultures were incubated at 30° C. Induction culture samples were collected at 24 h and 48 hr time points after the start of induction.
(§4) Cultures first centrifuged at 3000 rpm for 10 m to separate pellet and culture media supernatant fractions. Pellets also washed with PBS twice. Cell pellets lysed with B-PER Complete Reagent following manufacturer's protocol. […] Samples of the cell lysates were analyzed by SDS-PAGE analysis. […]

E. coli [2] = experiment: CBGA production in E. coli expressing NphB variant and transporter, fed OA; type: cell-based; conditions: cells expressing NphB variant; compared to control cell not expressing a heterologous transporter (FIG. 9)
Method: as §1, §2
as §3, with “(2)” for “(1)”, “0.5” for “0.1”, “OA, 5 mM MgCl2,” for “OA”, “arabinose” for “arabinose and magnesium”, “IPTG to a final concentration of 100 μM.” for “5 mM MgCl2.”
as §4

B1: IspDF3: novel bifunctional IspD-IspF fusion from soil metagenome fosmid NR0037_N05, 40.2 kDa (protein)
chain: MVHVSAIIAAGGRGERFGGPQPKQLLLLGGVPILKRTVDAFLRGYPFIEVIVALPAEFVANPPDYLDDVIVVEGGARRQDSVANAFRAVAPSAQVVVIHDAARPLVTPSLIERTVDAAVKHGAAIAALRATDTVKRGDASRVIRGTLPRDEIFLAQTPQAFRAGVLRDALALAASAADATDEAMLAEQAGHHVRLVDGDPRNLKITTPEDLEMRIGNGYDLHRLVTGRPLVLGGVTIPFEKGLQGHSDADAVCHAITDAILGAASAGDIGRHFPDTDPAWKDAKSIVLLQQAAQIVSRAGYAIANLDVVVIAQQPKLVPHIDAIRHSVAHALGIDVQQVSVKGKTNEGVDSMGAGESIAVHAVALLQHS
MEP pathway flux
  terpene titer (lycopene and isoprene), in words: lowered the titer

B2: IspEF fusion: non-natural fusion, E. coli IspE linked by flexible linker (FL) to E. coli IspF (protein)
chain: MRTQWPSPAKLNLFLYITGQRADGYHTLQTLFQFLDYGDTISIELRDDGDIRLLTPVEGVEHEDNLIVRAARLLMKTAADSGRLPTGSGANISIDKRLPMGGGLGGGSSNAATVLVALNHLWQCGLSMDELAEMGLTLGADVPVFVRGHAAFAEGVGEILTPVDPPEKWYLVAHPGVSIPTPVIFKDPELPRNTPKRSIETLLKCEFSNDCEVIARKRFREVDAVLSWLLEYAPSRLTGTGACVFAEFDTESEARQVLEQAPEWLNGFVAKGANLSPLHRAMLSLGGGGSAAAMRIGHGFDVHAFGGEGPIIIGGVRIPYEKGLLAHSDGDVALHALTDALLGAAALGDIGKLFPDTDPAFKGADSRELLREAWRRIQAKGYTLGNVDVTIIAQAPKMLPHIPQMRVFIAEDLGCHMDDVNVKATTTEKLGFTGRGEGIACEAVALLIKATK
MEP pathway flux
  decrease in lycopene production than SALyc-SDFEI: at least 65%
  decrease in normalized lycopene titers than SALyc-SDFEI: 85%
MEP pathway flux; comparison as stated in the sentence (FIGS. 21, 23, 25)
  lycopene production / titers, in words: lowered the lycopene production substantially

B3: pcaK: MFS aromatic acid antiporter amplified from Pseudomonas putida KT2440 (protein, UniProt Q51955 1-448, looked up)
4-hydroxybenzoate transporter …: MNQAQNSVGKSLDVQSFINQQPLSRYQWRVVLLCFLIVFLDGLDTAAMGFIAPALSQEWGIDRASLGPVMSAALIGMVFGALGSGPLADRFGRKGVLVGAVLVFGGFSLASAYATNVDQLLVLRFLTGLGLGAGMPNATTLLSEYTPERLKSLLVTSMFCGFNLGMAGGGFISAKMIPAYGWHSLLVIGGVLPLLLALVLMVWLPESARFLVVRNRGTDKIRKTLSPIAPQVVAEAGSFSVPEQKAVAARSVFAVIFSGTYGLGTMLLWLTYFMGLVIVYLLTSWLPTLMRDSGASMEQAAFIGALFQFGGVLSAVGVGWAMDRYNPHKVIGIFYLLAGVFAYAVGQSLGNITVLATLVLIAGMCVNGAQSAMPSLAARFYPTQGRATGVSWMLGIGRFGAILGAWSGATLLGLGWNFEQVLTALLVPAALATVGVIVKGLVSHADAT
E. coli [1]
  olivetolate uptake inside cells: increased olivetolate uptake
E. coli [2]
  production of CBGA: increased production of CBGA

B4: IspDF2: novel bifunctional IspD-IspF fusion from soil metagenome fosmid NR0032_O07, 42.1 kDa (protein)
chain: MQVTAIIAAGGRGRRFGGGVPKQLVGVGGRPILERTVAAFLGHPAIHEVVVALPAELMADPPAYLRAAPKPIRLVAGGVQRQDSVRQAFQAANEQSDVIVIHDAARPFASADLISRTIAAAAEGGAALAAVPARDTVKRGAFAAGRTGPAGRQAVEGAPLLVVAETLPRDSIYLAQTPQAFRRDVLRDALALGEAGSEATDEATLAERAGHIVRLVEGEPANIKITTPDDLLVAFRIGAGYDLHRLVEGRPLVLGGVTIPFERGLLGHSDADAICHAVTDAVLGAAAAGDIGRHFPDSDPKWRDWSSIDLLRRASAIVKGRGYAIANVDAVVIAERPKLAPFLDEMRANVAGAIGIAVDAVGIKGKTNEGLGELGRGEAIAVHAVALLHL
MEP pathway flux
  terpene titer (lycopene and isoprene), in words: lowered the titer
